Experimental data from the Human Domainome abundance scans (Beltran et al. 2025).

B1: Metastasis-associated protein MTA3, residues 265 to 317; numbered along this chain, Q9BTC8 (parent)
chain: RDEMEEWSASEASLFEEALEKYGKDFNDIRQDFLPWKSLTSIIEYYYMWKTTD

Variants of: B1
Assay: abundance fitness (aPCA) (normalised: wild type 0, dead -1); higher = more abundant; growth selection in yeast, the domain comes from the species named
Conditions: Homo sapiens

Abundance fitness: each site, then its substitutions
Y46: A -0.824, P -0.598, E -0.531, N -0.907, G -0.422, H -0.176, S -0.457, K -0.791, W -0.62, V -0.98, C -0.976, L -0.851, M -0.99
L39: S -0.581, R -0.348, E -0.865, A -0.6, C -0.733, T -0.389, M -0.541, G -0.896, D -0.483, V -0.327
M48: A -0.006, E -0.207, N -0.144, L -0.176, C -0.086, P -0.817, F 0.204, S -0.04, G -0.257, Q 0.133, V -0.212, R 0.323, T -0.103, D -0.619, K 0.128, W -0.256
S41: M -0.794, Q -0.226, L -0.577, A -0.139, T -0.804, K -0.781, E 0.161, F -0.54, P 0.242, Y -0.488, R -0.868, G -0.954, W -0.901, C -0.681, D 0.05, V -0.837, I -1.09, N -0.561, H -0.717
Y47: H 0.196, T 0.398, K 0.375, N 0.053, R 0.31, G 0.027, V -0.681, C -0.187, W -0.174, L -0.735, A 0.387, E 0.516, Q 0.329, S 0.325
D32: S 1.09
K24: A 0.104, W -0.935, G -0.208, F -0.992, I -0.536, R -0.151, H -0.362, L -0.006, N 0.333, Y -0.331, Q -0.062, E -0.133, S -0.108, P 0.307, D -0.165, V -0.217, C 0.163
D25: N 0.356, E -0.087, H -0.125, F -0.594, W -0.776, I -0.162, A 0.556, Y -0.392, C -0.026, V -0.818, L -0.741, G -0.47, M -0.25, K 0.375, S 0.366, T -0.838, Q 0.088
G23: Y -0.353, P -0.81, C -0.368, K -1.05, R -0.844, H -0.784, V -0.888, A -0.536, I -1.01, W -0.868, D -0.558, M -0.735, N -0.638, E -0.815, S -0.792, L -0.745, T -0.92, Q -0.759
E44: A -0.477, G -0.691, T -0.443, C -0.808, I -0.779, W -1.05, P -0.922, D -0.145, M -0.961, Y -0.834, H -0.438, L -0.694, R 0.079, K -0.246, Q 0.015, N 0.177, V -0.758
F26: S -0.959
K37: L -0.802, I -0.586, G -0.812, F -0.785, Y -0.806, H -0.941, R -0.398, P -0.877, T -0.88, V -0.842, E -0.806, D -0.707, N -0.803, W -0.84, M -0.719, S -0.65, C -0.763
T51: N -0.027, G 0.076, Q 0.433, A 0.185, S -0.068, H -0.235, M -0.542
